# Assay results from patent US20230212268A1 (UNM RAINFOREST INNOVATIONS, published 2023).
# Where “and” joins values, the source holds several entries; their conditions need not be identical. Identical values can stand only once. Like-named read-outs stand apart in the source and are kept apart here.
# Assays:
# [1] = target: T1, recombinant SUDV glycoprotein (SUDV (Sudan ebolavirus), UniProt Q7T9D9 33-650); test: ELISA dose response, GP coated
# T1 sequence: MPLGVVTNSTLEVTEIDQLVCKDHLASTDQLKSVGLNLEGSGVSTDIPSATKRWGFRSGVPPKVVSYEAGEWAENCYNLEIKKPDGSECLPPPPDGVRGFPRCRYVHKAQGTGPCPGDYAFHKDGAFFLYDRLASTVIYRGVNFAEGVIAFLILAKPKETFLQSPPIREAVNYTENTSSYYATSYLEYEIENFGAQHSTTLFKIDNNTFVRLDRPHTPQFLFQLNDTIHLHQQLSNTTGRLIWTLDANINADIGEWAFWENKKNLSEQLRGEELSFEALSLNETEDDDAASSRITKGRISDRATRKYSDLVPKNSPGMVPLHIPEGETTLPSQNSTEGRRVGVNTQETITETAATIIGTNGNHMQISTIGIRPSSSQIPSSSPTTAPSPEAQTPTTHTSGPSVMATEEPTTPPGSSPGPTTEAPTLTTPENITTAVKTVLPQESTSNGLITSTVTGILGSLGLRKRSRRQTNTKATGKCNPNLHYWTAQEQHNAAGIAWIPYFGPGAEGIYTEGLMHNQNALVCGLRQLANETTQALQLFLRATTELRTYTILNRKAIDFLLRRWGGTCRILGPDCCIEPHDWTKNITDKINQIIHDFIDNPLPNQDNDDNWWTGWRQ
# [2] = target: T2, recombinant TAFV glycoprotein (TAFV (Tai Forest virus), UniProt Q66810 33-650); test: ELISA dose response, GP coated
# T2 sequence: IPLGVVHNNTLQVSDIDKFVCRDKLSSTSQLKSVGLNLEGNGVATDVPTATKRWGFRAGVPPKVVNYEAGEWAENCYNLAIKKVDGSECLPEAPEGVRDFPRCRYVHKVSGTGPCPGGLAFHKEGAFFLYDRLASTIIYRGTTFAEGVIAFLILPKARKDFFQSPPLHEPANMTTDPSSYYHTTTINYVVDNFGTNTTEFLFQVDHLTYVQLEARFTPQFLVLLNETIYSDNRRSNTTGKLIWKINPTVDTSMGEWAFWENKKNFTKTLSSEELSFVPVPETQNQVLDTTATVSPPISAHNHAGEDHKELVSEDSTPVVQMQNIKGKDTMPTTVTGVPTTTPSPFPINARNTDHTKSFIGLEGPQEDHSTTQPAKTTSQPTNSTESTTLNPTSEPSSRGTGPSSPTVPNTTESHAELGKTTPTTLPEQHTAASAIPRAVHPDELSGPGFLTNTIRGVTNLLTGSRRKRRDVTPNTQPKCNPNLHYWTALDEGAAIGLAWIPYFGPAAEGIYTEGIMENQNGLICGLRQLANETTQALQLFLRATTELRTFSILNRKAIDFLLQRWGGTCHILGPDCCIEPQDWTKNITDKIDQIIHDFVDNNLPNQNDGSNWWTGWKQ
# [3] = target: T3, recombinant RESTV glycoprotein (RESTV (Reston ebolavirus), UniProt Q66799 34-651); test: ELISA dose response, GP coated
# T3 sequence: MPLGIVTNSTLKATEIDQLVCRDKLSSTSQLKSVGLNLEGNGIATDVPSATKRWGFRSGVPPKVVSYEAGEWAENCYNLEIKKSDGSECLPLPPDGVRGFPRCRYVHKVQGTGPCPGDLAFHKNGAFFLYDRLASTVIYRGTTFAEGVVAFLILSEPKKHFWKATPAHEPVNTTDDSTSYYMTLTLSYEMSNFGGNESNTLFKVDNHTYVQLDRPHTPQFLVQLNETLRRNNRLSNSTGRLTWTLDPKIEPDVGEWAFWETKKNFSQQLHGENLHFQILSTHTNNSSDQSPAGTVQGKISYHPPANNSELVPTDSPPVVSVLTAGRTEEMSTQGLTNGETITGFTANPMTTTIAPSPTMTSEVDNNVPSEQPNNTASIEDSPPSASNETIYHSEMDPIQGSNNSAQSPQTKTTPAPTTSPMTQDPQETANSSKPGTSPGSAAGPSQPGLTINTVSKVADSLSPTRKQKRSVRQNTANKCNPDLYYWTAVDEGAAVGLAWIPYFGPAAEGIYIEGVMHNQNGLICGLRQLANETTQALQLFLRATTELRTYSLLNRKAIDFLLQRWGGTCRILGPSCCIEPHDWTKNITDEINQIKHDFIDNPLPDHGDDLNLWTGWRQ
# [4] = target: T4, recombinant EBOV glycoprotein (EBOV (Zaire ebolavirus), UniProt Q05320 33-650); test: ELISA dose response, GP coated
# T4 sequence: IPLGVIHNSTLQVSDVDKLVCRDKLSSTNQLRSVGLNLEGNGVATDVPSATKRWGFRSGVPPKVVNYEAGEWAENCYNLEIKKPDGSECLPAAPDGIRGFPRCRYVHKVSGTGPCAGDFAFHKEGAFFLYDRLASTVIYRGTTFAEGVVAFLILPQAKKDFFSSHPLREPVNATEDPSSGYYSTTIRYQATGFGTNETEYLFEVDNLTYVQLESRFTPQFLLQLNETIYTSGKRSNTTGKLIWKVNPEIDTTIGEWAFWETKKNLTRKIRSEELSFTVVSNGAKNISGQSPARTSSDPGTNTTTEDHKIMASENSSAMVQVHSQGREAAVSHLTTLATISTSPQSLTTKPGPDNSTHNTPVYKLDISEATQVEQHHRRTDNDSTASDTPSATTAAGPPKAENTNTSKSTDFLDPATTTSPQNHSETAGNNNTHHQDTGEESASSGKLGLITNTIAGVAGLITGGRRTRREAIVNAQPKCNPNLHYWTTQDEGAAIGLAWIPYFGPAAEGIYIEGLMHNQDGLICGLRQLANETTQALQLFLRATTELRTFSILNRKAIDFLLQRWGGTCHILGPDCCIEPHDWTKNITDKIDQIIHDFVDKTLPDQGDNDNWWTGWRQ
# [5] = target: T5, recombinant MARV glycoprotein (MARV (marburgvirus, Ravn), UniProt Q1PDC7 19-648); test: ELISA dose response, GP coated
# T5 sequence: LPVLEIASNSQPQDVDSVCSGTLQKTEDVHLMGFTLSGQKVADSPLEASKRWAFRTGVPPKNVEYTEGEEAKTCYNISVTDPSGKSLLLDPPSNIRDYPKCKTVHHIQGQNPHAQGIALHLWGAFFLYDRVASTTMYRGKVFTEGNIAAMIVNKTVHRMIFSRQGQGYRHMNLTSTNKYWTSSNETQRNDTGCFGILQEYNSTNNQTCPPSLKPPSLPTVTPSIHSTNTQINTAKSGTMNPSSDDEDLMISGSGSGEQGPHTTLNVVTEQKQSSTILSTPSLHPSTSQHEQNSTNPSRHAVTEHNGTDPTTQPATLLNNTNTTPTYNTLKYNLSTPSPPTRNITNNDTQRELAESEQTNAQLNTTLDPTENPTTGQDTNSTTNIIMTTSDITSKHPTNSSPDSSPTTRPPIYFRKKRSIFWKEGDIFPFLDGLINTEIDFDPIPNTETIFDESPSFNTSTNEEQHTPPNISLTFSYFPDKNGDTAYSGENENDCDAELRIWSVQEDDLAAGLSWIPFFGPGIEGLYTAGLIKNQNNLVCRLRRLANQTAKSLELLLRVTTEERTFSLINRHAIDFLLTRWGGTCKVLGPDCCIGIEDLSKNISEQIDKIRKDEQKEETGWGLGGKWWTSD
# [6] = target: T1, recombinant SUDV glycoprotein; test: maximal binding from ELISA dose-response fit
# [7] = target: T2, recombinant TAFV glycoprotein; test: maximal binding from ELISA dose-response fit
# [8] = target: T3, recombinant RESTV glycoprotein; test: maximal binding from ELISA dose-response fit
# [9] = target: T4, recombinant EBOV glycoprotein; test: maximal binding from ELISA dose-response fit
# [10] = target: T5, recombinant MARV glycoprotein; test: maximal binding from ELISA dose-response fit
# [11] = target: T2, recombinant TAFV glycoprotein
# [12] = target: T4, recombinant EBOV glycoprotein; test: ELISA, GP coated
# [13] = target: T1, recombinant SUDV glycoprotein; test: ELISA, GP coated
# [14] = target: T2, recombinant TAFV glycoprotein; test: ELISA, GP coated
# [15] = target: T3, recombinant RESTV glycoprotein; test: ELISA, GP coated
# [16] = target: T5, recombinant MARV glycoprotein; test: ELISA, GP coated
binder,measurement,setting,value
EbovGPscFv22-1 (scFv) scFv: MAWSHPQFEKTGSGQVQLQQPGTELVKPGASVKLSCKASGYTFTSYWMHWVKQRPGQGLEWIGNTNPSNGGTNYNEKFKSKATLTVDKSSNTAYMQLSSLTSEDSAVYYCARSVSGNFAYWGQGTLVTVSAGGGGSGGGGSGGGGSGGGGSLSLPVSLGDQASISCRSSQSLVHSNGNTYLHWYLQKPGQSPKLLIYKVSNRFSGVPDRFSGSGSGTDFTLKISRVEAEDLGVYFCSQSTHVPWTFGGGTKLEIKRADAAPTVSIFPPSSEQLTSGGASVVCFLNNFTHCQELQQDECS,EC50,[1],< 12 µg/mL and 7.94 µg/mL
same,EC50,[2],11.6 µg/mL and < 12 µg/mL
same,EC50,[3],9 µg/mL and < 12 µg/mL
same,EC50,[4],< 12 µg/mL and 7.36 µg/mL
same,EC50,[5],< 12 µg/mL and 6.58 µg/mL
same,Bmax signal,[6],280000 relative absorbance units
same,Bmax signal,[7],270000 relative absorbance units
same,Bmax signal,[8],320000 relative absorbance units
same,Bmax signal,[9],370000 relative absorbance units
same,Bmax signal,[10],250000 relative absorbance units
same,EC50,[11],12 µg/mL
EbovGPscFv13-1 (scFv) scFv: MAWSHPQFEKTGSGQVQLQQSGAELVKPGASVKLSCKASGYTFTEYTIHWVKQRSGQGLEWIGWFYPGSGSIKYDEKFKDKATLTADKSSSTVYMELSRLTSEDSAVYFCARHEPYYYGSSYEGPFDYWGQGTTLTVSSGGGGSGGGGSGGGGSGGGGSSPLSVSAGEKVTMSCKSSQSLLNSGNQKNYLAWYQQKPGQPPKLLIYGASTRESGVPDRFTGSGSGTDFTLTISSVQAEDLAVYYCQNDHSYPLTFGAGTKLELKRADAAPTVSIFPPSSEQLTSGGASVVCFLNNFTHCQELQQDECS,binding result,[12],binds
EbovGPscFv16-1 (scFv) scFv: MAWSHPQFEKTGSGGAELVRSGASVKLSCTASGFNIKDDYMHWVKQRPEQGLKWIGWIDPENGDTEYASKLQGKATITADTSSNTAYLQLSSLTSEDTAVYYCARPIYYYGSSHWYFDVWGTGTTVTVSSGGGGSGGGGSGGGGSGGGGSLSLPVSLGDQASISCRSSQSLVHSNGNTYLHWYLQKPGQSPKLLIYKVSNRFSGVPDRFSGSGSGTDFTLKISRVEAEDLGVYFCSQSTHVPWTFGGGTKLEVKRADAAPTVSIFPPSSEQLTSGGASVVCFLNNFTHCQELQQDECS,binding result,[12],binds
EbovGPscFv35-2 (scFv) scFv: MAWSHPQFEKTGSGDVKLQESGPGLVKPSQSLSLTCSVTGYSITSGYYWNWIRQFPGNKLEWMGYISYDGSNNYNPSLKNRISITRDTSKNQFFLKLNSVTTEDTATYYCARESPYYGSSHWYFGVWGTGTTVTVSSGGGGSGGGGSGGGGSGGGGSASLSASVGETVTITCRTSENIYSYLAWYQQKQGKSPQLLVYNAKTLAEGVPSRFSGSGSGTQFSLKINSLQPEDFGSYYCQHHYGIPPWTFGGGTKLEIKRADAAPTVSIFPPSSEQLTSGGASVVCFLNNFTHCQELQQDECS,binding result,[12],binds
EbovGPscFv27-5 (scFv) scFv: MAWSHPQFEKTGSGQVQLQQSGAELVKPGASVKSSCTATGFNIKDYYIHWVKQRTEQGLEWIGRIDPEDGETKYAPKFQGKATITADISPNTAYLQPSSLTSEDTAVYYCTRGGYYGPWYFDVWGTGTTVTVSSGGGGSGGGGSGGGGSGGGGSASLSVSVGETVTITCRASENIYSYLAWYQQKQGKSPQLLVYNAKTLAEGVPSRFSGSGSGTQFSLKINNLQPEDFGSYYCQRHYDTPYTFGGGTKLEIKRADAAPTVSIFPPSSEQLTSGGASVVCFLNNFTHCQELQQDECS,binding result,[13],no binding
same,binding result,[14],no binding
same,binding result,[15],no binding
same,binding result,[16],no binding
